From article PMC9482650, “Quantitative fragmentomics allow affinity mapping of interactomes” (Nature Communications, 2022)

T1: LIN7A, O14910
T1 sequence (O14910 103-200, limits assumed, looked up): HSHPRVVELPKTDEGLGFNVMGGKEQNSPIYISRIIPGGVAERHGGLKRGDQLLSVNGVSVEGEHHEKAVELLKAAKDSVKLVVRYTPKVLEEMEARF

T2: RAPGEF6, Q8TEU7
T2 sequence (Q8TEU7 525-625, limits assumed, looked up): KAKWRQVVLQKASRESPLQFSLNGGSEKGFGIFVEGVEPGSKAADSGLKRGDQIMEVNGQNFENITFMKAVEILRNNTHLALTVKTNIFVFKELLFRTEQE

T3: MPP6, Q9NZW5
T3 sequence (Q9NZW5 125-219, limits assumed, looked up): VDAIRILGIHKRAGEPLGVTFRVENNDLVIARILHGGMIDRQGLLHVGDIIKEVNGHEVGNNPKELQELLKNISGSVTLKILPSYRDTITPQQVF

T4: GRIP1_4, Q9Y3R0
T4 sequence (Q9Y3R0 467-571, limits assumed, looked up): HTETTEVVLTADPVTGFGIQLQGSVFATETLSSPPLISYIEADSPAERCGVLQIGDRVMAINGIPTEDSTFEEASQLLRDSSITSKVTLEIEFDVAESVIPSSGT

T5: SNTG1, Q9NSN8
T5 sequence (Q9NSN8 52-150, limits assumed, looked up): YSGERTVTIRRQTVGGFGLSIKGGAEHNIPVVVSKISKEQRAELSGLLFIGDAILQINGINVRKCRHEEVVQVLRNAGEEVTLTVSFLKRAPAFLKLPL

T6: APBA1_1, Q02410
T6 sequence (Q02410 651-752, limits assumed, looked up): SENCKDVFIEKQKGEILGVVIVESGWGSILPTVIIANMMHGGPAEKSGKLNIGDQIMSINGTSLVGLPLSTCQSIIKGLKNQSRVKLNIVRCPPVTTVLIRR

T7: DLG3_3, Q92796
T7 sequence (Q92796 374-475, limits assumed, looked up): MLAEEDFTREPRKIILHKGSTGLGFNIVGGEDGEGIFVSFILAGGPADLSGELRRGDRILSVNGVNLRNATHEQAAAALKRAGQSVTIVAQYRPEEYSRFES

T8: MPP7, Q5T2T1
T8 sequence (Q5T2T1 134-230, limits assumed, looked up): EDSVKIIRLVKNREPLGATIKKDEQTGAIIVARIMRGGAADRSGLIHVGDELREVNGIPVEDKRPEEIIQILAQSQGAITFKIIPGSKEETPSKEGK


Legend:
Assay in all cases: holdup assay
Design in all cases: key: below the threshold = too weak to quantify, mostly under pKd 3.1 to 4
Conditions in all cases: plain residues with an end cap or a label only (N-terminal biotin on a linker: ado-ado)
[1] = target: IL16_3, Q14005
[2] = target: MAGI1_1, Q96QZ7
[3] = target: FRMPD2_1, Q68DX3
[4] = target: T1, LIN7A, O14910
[5] = target: LDB3, O75112
[6] = target: Inadl_9, Q8NI35
[7] = target: T2, RAPGEF6, Q8TEU7
[8] = target: T3, MPP6, Q9NZW5
[9] = target: FRMPD3, Q5JV73
[10] = target: NHERF4_4, Q86UT5
[11] = target: PDZRN4_1, Q6ZMN7
[12] = target: T4, GRIP1_4, Q9Y3R0
[13] = target: IL16_4, Q14005
[14] = target: DLG1_3, Q12959
[15] = target: LIMK2, P53671
[16] = target: HTRA1, Q92743
[17] = target: GRIP2_6, Q9C0E4
[18] = target: T5, SNTG1, Q9NSN8
[19] = target: CASK, O14936
[20] = target: GRIP2_4, Q9C0E4
[21] = target: LNX1_3, Q8TBB1
[22] = target: MAGI1_2, Q96QZ7
[23] = target: T6, APBA1_1, Q02410
[24] = target: GRIP2_5, Q9C0E4
[25] = target: T7, DLG3_3, Q92796
[26] = target: MAST1, Q9Y2H9
[27] = target: LNX1_1, Q8TBB1
[28] = target: T8, MPP7, Q5T2T1
[29] = target: HTRA2, O43464
Chain of HTRA2, O43464 (O43464 355-458): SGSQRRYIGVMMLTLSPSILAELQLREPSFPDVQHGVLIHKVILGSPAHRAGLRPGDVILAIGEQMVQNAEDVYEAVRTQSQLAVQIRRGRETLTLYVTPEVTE

Chain of GRIP2_6, Q9C0E4 (Q9C0E4 648-740): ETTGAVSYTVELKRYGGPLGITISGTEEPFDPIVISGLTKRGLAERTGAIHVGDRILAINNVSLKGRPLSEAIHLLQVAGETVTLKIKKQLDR
Chain of NHERF4_4, Q86UT5 (Q86UT5 464-550): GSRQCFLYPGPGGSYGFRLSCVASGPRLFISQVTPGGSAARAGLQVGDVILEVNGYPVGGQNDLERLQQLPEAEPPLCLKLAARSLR
Chain of PDZRN4_1, Q6ZMN7 (Q6ZMN7 213-318): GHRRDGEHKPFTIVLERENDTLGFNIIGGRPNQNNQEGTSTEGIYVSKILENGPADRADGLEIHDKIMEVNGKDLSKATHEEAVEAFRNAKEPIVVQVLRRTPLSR
Chain of MAGI1_2, Q96QZ7 (Q96QZ7 456-580): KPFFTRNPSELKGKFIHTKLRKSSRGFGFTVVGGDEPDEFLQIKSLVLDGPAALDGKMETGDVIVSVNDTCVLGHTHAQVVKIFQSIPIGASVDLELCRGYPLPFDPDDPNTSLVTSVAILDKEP
Chain of GRIP2_4, Q9C0E4 (Q9C0E4 446-548): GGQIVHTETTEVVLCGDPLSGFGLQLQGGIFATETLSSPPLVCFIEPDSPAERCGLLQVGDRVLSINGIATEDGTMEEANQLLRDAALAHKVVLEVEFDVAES
Chain of DLG1_3, Q12959 (Q12959 457-571): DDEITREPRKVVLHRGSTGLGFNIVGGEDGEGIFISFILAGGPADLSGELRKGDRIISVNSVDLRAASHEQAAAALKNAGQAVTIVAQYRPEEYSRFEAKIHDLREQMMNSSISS
Chain of CASK, O14936 (O14936 487-570): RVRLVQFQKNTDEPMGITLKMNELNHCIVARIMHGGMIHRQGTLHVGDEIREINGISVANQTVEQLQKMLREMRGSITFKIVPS
Chain of LDB3, O75112 (O75112 1-94): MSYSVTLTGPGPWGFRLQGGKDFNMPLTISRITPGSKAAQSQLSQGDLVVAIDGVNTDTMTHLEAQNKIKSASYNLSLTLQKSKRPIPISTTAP
Chain of LNX1_1, Q8TBB1 (Q8TBB1 261-371): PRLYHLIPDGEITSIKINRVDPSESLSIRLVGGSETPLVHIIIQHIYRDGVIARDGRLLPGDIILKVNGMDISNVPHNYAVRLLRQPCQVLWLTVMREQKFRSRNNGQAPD
Chain of MAGI1_1, Q96QZ7 (Q96QZ7 1-106): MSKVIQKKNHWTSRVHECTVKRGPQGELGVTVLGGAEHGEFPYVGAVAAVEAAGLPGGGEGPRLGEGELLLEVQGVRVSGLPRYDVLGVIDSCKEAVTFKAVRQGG
Chain of IL16_3, Q14005 (Q14005 1107-1207): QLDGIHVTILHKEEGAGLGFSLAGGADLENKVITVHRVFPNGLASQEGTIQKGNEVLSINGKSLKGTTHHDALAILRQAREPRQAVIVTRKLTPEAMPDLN
Chain of FRMPD3, Q5JV73 (Q5JV73 12-100): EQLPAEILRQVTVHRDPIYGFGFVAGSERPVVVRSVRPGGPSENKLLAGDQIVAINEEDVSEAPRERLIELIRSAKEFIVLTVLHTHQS
Chain of FRMPD2_1, Q68DX3 (Q68DX3 770-861): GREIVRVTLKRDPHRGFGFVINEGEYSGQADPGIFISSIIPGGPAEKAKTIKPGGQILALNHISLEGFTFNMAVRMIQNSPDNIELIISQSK
Chain of LIMK2, P53671 (P53671 143-248): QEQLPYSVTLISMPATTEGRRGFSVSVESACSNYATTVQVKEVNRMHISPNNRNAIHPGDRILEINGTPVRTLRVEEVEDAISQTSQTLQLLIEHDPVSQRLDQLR
Chain of MAST1, Q9Y2H9 (Q9Y2H9 962-1065): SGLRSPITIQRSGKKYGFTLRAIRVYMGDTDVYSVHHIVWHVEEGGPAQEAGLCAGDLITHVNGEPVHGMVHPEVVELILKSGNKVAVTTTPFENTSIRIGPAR
Chain of LNX1_3, Q8TBB1 (Q8TBB1 500-596): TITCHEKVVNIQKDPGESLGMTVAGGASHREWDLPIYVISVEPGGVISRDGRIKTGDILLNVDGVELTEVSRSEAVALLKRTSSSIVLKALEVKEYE
Chain of Inadl_9, Q8NI35 (Q8NI35 1530-1615): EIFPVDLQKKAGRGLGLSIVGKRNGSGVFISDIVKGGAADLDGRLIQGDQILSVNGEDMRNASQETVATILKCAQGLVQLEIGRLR
Chain of IL16_4, Q14005 (Q14005 1229-1329): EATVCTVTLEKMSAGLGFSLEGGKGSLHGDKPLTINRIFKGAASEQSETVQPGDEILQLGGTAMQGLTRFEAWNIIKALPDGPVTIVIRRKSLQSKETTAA
Chain of GRIP2_5, Q9C0E4 (Q9C0E4 544-642): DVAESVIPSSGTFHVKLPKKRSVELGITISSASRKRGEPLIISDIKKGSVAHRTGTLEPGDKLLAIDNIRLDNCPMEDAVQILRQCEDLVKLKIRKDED
Chain of HTRA1, Q92743 (Q92743 360-477): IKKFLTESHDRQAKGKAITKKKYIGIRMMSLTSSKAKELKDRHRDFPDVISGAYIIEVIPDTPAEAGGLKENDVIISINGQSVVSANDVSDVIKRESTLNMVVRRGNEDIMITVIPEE

| pKd [1] | pKd [2] | pKd [3] | pKd [4] | pKd [5] | pKd [6] | pKd [7] | pKd [8] | pKd [9] | pKd [10] | pKd [11] | pKd [12] | pKd [13] | pKd [14] | pKd [15] | pKd [16] | pKd [17] | pKd [18] | pKd [19] | pKd [20] | Binder | other results |
| --- | --- | --- | --- | --- | --- | --- | --- | --- | --- | --- | --- | --- | --- | --- | --- | --- | --- | --- | --- | --- | --- |
| below the threshold | below the threshold | below the threshold | below the threshold | 3.9 | 3.69 | below the threshold | 4.01 | 4.15 | 4.3 | below the threshold | below the threshold | below the threshold | below the threshold | below the threshold | 4.96 | 3.79 | 3.81 | 4.83 | below the threshold | VCMGDHWFDV [PRKN, O60260] | pKd [21]: 4.07; pKd [22]: below the threshold; pKd [23]: below the threshold; pKd [24]: below the threshold; pKd [25]: below the threshold; pKd [26]: below the threshold; pKd [27]: 3.94; pKd [28]: 4.85; pKd [29]: 3.96 |
| below the threshold | below the threshold | below the threshold | below the threshold | below the threshold | below the threshold | 3.58 | below the threshold | below the threshold | below the threshold | below the threshold | below the threshold | below the threshold | 3.76 | below the threshold | 3.66 | below the threshold | below the threshold | below the threshold | below the threshold | QRYPGNQTTC [CCL24, O00175] | pKd [21]: below the threshold; pKd [22]: below the threshold; pKd [23]: below the threshold; pKd [24]: below the threshold; pKd [25]: below the threshold; pKd [26]: 4.14; pKd [27]: 3.78; pKd [28]: below the threshold; pKd [29]: below the threshold |
| below the threshold | below the threshold | below the threshold | below the threshold | below the threshold | 3.71 | below the threshold | below the threshold | below the threshold | below the threshold | below the threshold | below the threshold | below the threshold | below the threshold | below the threshold | 3.72 | below the threshold | below the threshold | below the threshold | below the threshold | PKSNSSKEYV [CLDN7, O95471] | pKd [21]: below the threshold; pKd [22]: below the threshold; pKd [23]: below the threshold; pKd [24]: below the threshold; pKd [25]: below the threshold; pKd [26]: 3.62; pKd [27]: below the threshold; pKd [28]: below the threshold; pKd [29]: below the threshold |
| below the threshold | below the threshold | below the threshold | below the threshold | 3.74 | 3.9 | below the threshold | below the threshold | 3.71 | below the threshold | 4.14 | below the threshold | 3.67 | below the threshold | below the threshold | 4.71 | below the threshold | 4.64 | below the threshold | below the threshold | HYPASPDSWV [CTNND2, Q9UQB3] | pKd [21]: below the threshold; pKd [22]: below the threshold; pKd [23]: below the threshold; pKd [24]: below the threshold; pKd [25]: below the threshold; pKd [26]: 3.9; pKd [27]: 4.12; pKd [28]: below the threshold; pKd [29]: 4.12 |
| below the threshold | below the threshold | below the threshold | below the threshold | below the threshold | below the threshold | below the threshold | below the threshold | below the threshold | below the threshold | below the threshold | below the threshold | below the threshold | 3.56 | below the threshold | 4.11 | below the threshold | 3.47 | below the threshold | below the threshold | KLQNPNQSVV [TYRP1, P17643] | pKd [21]: below the threshold; pKd [22]: below the threshold; pKd [23]: below the threshold; pKd [24]: below the threshold; pKd [25]: below the threshold; pKd [26]: 4.37; pKd [27]: 3.86; pKd [28]: below the threshold; pKd [29]: below the threshold |
